Source: patent US20220235134A1 (SINGLE CELL TECHNOLOGY, published 2022)
Substitutions are numbered along the chain they refer to.

How the values were obtained:
[1] = biological target: T1, B7-H3, native protein on the cell surface of A498 and SK-MES-1 cells (UniProt Q5ZPR3 29-534, limits assumed); test: cell-based or functional assay
T1 sequence (looked up): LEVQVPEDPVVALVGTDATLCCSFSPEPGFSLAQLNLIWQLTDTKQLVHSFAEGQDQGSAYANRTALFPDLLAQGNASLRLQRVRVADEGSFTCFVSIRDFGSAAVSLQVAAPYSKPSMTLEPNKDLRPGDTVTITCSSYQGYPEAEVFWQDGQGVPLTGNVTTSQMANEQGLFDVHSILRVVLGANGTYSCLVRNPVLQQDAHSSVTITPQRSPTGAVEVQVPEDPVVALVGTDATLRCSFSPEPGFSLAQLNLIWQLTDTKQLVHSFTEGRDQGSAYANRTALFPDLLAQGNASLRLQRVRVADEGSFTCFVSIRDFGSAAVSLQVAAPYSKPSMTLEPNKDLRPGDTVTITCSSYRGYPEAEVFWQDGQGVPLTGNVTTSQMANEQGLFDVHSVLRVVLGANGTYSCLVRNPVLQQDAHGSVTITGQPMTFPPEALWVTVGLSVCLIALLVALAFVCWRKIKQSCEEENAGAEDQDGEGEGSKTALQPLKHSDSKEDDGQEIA

Recombinant human B7-H3 [2] = biological target: T2, Recombinant human B7-H3 (human, UniProt Q5ZPR3 29-466, limits assumed); test: SPR (such as Biacore T200), against human B7-H3
T2 construct: also called CD276; B7RP-2
T2 sequence: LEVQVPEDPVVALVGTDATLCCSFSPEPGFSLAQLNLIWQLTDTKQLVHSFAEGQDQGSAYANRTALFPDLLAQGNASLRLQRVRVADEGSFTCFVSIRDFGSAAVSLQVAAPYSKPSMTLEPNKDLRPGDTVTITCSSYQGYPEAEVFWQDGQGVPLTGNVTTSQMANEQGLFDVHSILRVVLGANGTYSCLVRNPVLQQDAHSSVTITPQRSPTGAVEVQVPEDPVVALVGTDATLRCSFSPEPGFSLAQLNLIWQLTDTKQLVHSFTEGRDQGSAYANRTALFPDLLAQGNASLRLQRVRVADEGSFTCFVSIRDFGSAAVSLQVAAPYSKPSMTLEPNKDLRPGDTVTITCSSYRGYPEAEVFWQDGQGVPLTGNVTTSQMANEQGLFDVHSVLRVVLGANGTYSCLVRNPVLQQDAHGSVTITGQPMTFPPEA
Protocol: (§1) The recombinantly expressed antibodies were used to assess binding activity to B7-H3 by conventional ELISA according to the known art. Recombinant human B7-H3 and cyno B7-H3 were coated onto ELISA plates to detect binding at serially diluted concentrations of the anti-B7-H3 antibody preparations. The binding affinity of select anti-B7-H3 antibodies were measured on a surface plasmon resonance (SPR) instrument, such as a Biacore T200™, against human B7-H3 (table 3) and cyno B7-H3 (table 4). Cell lines expressing B7-H3, A498 and SK-MES-1, were used to assess binding by anti-B7-H3 antibodies on the native protein on the cell surface by flow cytometry according to the known art. […] In addition, the antibody-dependent cellular cytotoxicity (ADCC) activity of select anti-B7-H3 antibodies were assessed using an engineered surrogate effector cell line, kit reagents, and a luminometer (Promega, Madison, Wis.) on A498 and SK-MES-1 as target cells in table 2 under the heading “ADCC (reporter) and FIGS. 1C and 1D. Finally, specificity of each of the antibodies examined thus far were assessed by interacting with proteins from the B7 family (human B7-1, B7-2, PD-L2, PD-L1, B7-H2, B7-H4, B7-H5, B7-H6, B7-H7) against B7-H3 using ELISA. The data were plotted for each antibody on FIGS. 3A through 3E.

[3] = biological target: T1, B7-H3, native protein on the cell …; test: flow cytometry (FACS) on SK-MES-1 cells
Protocol: as §1

[4] = biological target: T1, B7-H3, native protein on the cell …; test: flow cytometry (FACS) on A498 cells
Protocol: as §1

Recombinant cyno B7-H3 [5] = biological target: Recombinant cyno B7-H3 (cyno); test: SPR (such as Biacore T200), against cyno B7-H3
Protocol: as §1

Recombinant cyno B7-H3 [6] = biological target: Recombinant cyno B7-H3 (cyno); test: ELISA, cyno B7-H3 coated on plate
Protocol: as §1

Recombinant human B7-H3 [7] = biological target: T2, Recombinant human B7-H3; test: ELISA, recombinant human B7-H3 coated on plate
Protocol: as §1

B1: SCT-Da148 (antibody, V domains shown)
VH: EVQLQQSGAELVKPGASVKLSCTASGVNIKDTYIHWVKQRPEQGLEWIGRIDPANGNRKYDPKFQGKATITADSSSNTAYLQLSSLTSEDTAVYYCARDGYYAPGYWGQGTTLTVSS
VL: DIVMTQSQKFMSTSVGDRVSVTCKASQNVGTDVAWYQQKPGQSPKLLIYSASYRFSGVPDRFTGSGSGTDFSLAISNVQSEDLAEYFCQQYNSYPYTFGGGAKLEIK
With B1 the “ADCC (reporter) EC50, A498 target cells” value [1] was 3.6 nM, the “ADCC (reporter) EC50, SK-MES-1 target cells” value (shortened to “ADCC … SK-MES-1 target cells”) [1] was 4.2 nM and the Kd (Recombinant human B7-H3 [2]) was 6.41 nM. It also gave a koff (Recombinant human B7-H3 [2]) of 0.00234 s⁻¹, a kon (Recombinant human B7-H3 [2]) of 366000 M⁻¹ s⁻¹ and an EC50 [3] of 1.49 nM. For the same binder, the EC50 [4] was 1.6 nM, the Kd (Recombinant cyno B7-H3 [5]) was 0.503 nM and the koff (Recombinant cyno B7-H3 [5]) was 0.000368 s⁻¹. The kon (Recombinant cyno B7-H3 [5]) was 731000 M⁻¹ s⁻¹, the EC50 (Recombinant cyno B7-H3 [6]) was 0.0114 nM and the EC50 (Recombinant human B7-H3 [7]) was 0.0076 nM.

B2: SCT-Da333 (antibody, V domains shown)
VH: QVQLQQSGPELVRPGVSVKISCKGSGYTFTDYAVHWVKQSHAKSLEWIGVINTYSGNTYYNLHFKGKATMTVDKSSSTAYMELARLTSEDSAIYYCARRRGSHRDAYFDYWGQGTTLTVSS
VL: DIVMTQSHKFMSTSVGDRVSITCRASQDVSTAVAWYQQKPGQSPKLLIYSASYRYTGVPDRFTVSGSGTDFTFTISSVQAEDLAVYYCQQHYSTPWTFGGGTKLEIK
With B2 the “ADCC (reporter) EC50, A498 target cells” value [1] was 23.3 nM, the “ADCC … SK-MES-1 target cells” value [1] was 32.8 nM and the Kd (Recombinant human B7-H3 [2]) was 380 nM. The koff (Recombinant human B7-H3 [2]) was 0.0512 s⁻¹, the kon (Recombinant human B7-H3 [2]) was 135000 M⁻¹ s⁻¹ and the EC50 [3] was 1.94 nM. It also gave an EC50 [4] of 3.29 nM, an EC50 (Recombinant cyno B7-H3 [6]) of 3.05 nM and an EC50 (Recombinant human B7-H3 [7]) of 0.00833 nM.

B3: SCT-Da182 (antibody, V domains shown)
VH: EVQLQQSGPELVKPGASMKISCKVSGFSFTGYTMNWVKQSHGKNLEWIGLINTYNGGTFYNQKFKAKATLTVDKSSSTAHMELLSLTSEDSAVYYCARSPGRYSMDYWGQGTSVTVSS
VL: DIVLTQSPASLAVSLGQRATISCKASQSVDYNGYSYLNWYQQKPGQPPKLLIYPASNLESGIPARFSGSGSGTDFTLNIHPVEEEDAATYYCQQSKEDPYTFGGGTKLEIK
With B3 the “ADCC (reporter) EC50, A498 target cells” value [1] was 4.5 nM, the “ADCC … SK-MES-1 target cells” value [1] was 4.6 nM and the Kd (Recombinant human B7-H3 [2]) was 10.9 nM. It also gave a koff (Recombinant human B7-H3 [2]) of 0.00101 s⁻¹, a kon (Recombinant human B7-H3 [2]) of 92700 M⁻¹ s⁻¹ and an EC50 [3] of 4.09 nM. For the same binder, the EC50 [4] was 3.7 nM, the Kd (Recombinant cyno B7-H3 [5]) was 1.22 nM and the koff (Recombinant cyno B7-H3 [5]) was 0.000283 s⁻¹. For the same binder, the kon (Recombinant cyno B7-H3 [5]) was 232000 M⁻¹ s⁻¹, the EC50 (Recombinant cyno B7-H3 [6]) was 0.00882 nM and the EC50 (Recombinant human B7-H3 [7]) was 0.0105 nM.

B4: SCT-Da192 (antibody, V domains shown)
VH: EVQLQQSGPELVKPGASVKISCKTSGYTFTEYTMHWVKQSHGKSLEWIGVINPNNGGTTYNQKFKGKATLTVDKSSSTAYMELRSLTSEDSAVYYCARPHSLLRLRREFDYWGQGTTLTVSS
VL: QIVLTQSPALMSASPGEKVTMTCSASSSVSYMYWYQQKPRSSPKPWIYLTSNLASGVPARFSGSGSGTSYSLTISSMEAEDAATYYCQQWSSNPLTFGAGTKLELK
In the case of B4, the “ADCC (reporter) EC50, A498 target cells” value [1] is reported as 1.1 nM, the “ADCC … SK-MES-1 target cells” value [1] is reported as 0.9 nM and the Kd (Recombinant human B7-H3 [2]) is reported as 23.8 nM. It also gave a koff (Recombinant human B7-H3 [2]) of 0.00203 s⁻¹, a kon (Recombinant human B7-H3 [2]) of 85100 M⁻¹ s⁻¹ and an EC50 [3] of 2.32 nM. For the same binder, the EC50 [4] was 2.62 nM, the Kd (Recombinant cyno B7-H3 [5]) was 1.64 nM and the koff (Recombinant cyno B7-H3 [5]) was 0.000505 s⁻¹. For the same binder, the kon (Recombinant cyno B7-H3 [5]) was 307000 M⁻¹ s⁻¹, the EC50 (Recombinant cyno B7-H3 [6]) was 0.0176 nM and the EC50 (Recombinant human B7-H3 [7]) was 0.0109 nM.

B5: SCT-Da250 (antibody, V domains shown)
VH: QGQMQQSGAELVKPGASVRLSCKTSGFTFSSFYISWLKQKPGQSLEWIAWIYAGPGYTSYNQKFTGKAQLTVDTSSSTAYMQFSSLTTEDSAIYYCARHVGRQRGYFDVWGAGTTVTVSS
VL: B2 VL with R24K, R61H
B5 was tested, and the “ADCC (reporter) EC50, A498 target cells” value [1] was 2.4 nM, the “ADCC … SK-MES-1 target cells” value [1] was 2.4 nM and the Kd (Recombinant human B7-H3 [2]) was 2.75 nM. The koff (Recombinant human B7-H3 [2]) was 0.0011 s⁻¹, the kon (Recombinant human B7-H3 [2]) was 402000 M⁻¹ s⁻¹ and the EC50 [3] was 1.46 nM. The EC50 [4] was 1.43 nM, the Kd (Recombinant cyno B7-H3 [5]) was 0.398 nM and the koff (Recombinant cyno B7-H3 [5]) was 0.000361 s⁻¹. For the same binder, the kon (Recombinant cyno B7-H3 [5]) was 905000 M⁻¹ s⁻¹, the EC50 (Recombinant cyno B7-H3 [6]) was 0.0237 nM and the EC50 (Recombinant human B7-H3 [7]) was 0.0226 nM.
